Reference: article PMC2397435 (2008)

T1: GAL4 DBD-p9 EIAVUK, P69732
T1 chain: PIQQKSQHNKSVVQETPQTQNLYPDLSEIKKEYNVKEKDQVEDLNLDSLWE

T2: Gal4 DBD-HIV-1 p6 (wild type), P12493
T2 chain: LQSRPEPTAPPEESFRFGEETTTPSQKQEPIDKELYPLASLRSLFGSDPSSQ

B1: Gal4 AD-ALIXΔ541–582, Q8WUM4-1 V509A (protein)
chain: MATFISVQLKKTSEVDLAKPLVKFIQQTYPSGGEEQAQYCRAAEELSKLRRAAVGRPLDKHEGALETLLRYYDQICSIEPKFPFSENQICLTFTWKDAFDKGSLFGGSVKLALASLGYEKSCVLFNCAALASQIAAEQNLDNDEGLKIAAKHYQFASGAFLHIKETVLSALSREPTVDISPDTVGTLSLIMLAQAQEVFFLKATRDKMKDAIIAKLANQAADYFGDAFKQCQYKDTLPKEVFPVLAAKHCIMQANAEYHQSILAKQQKKFGEEIARLQHAAELIKTVASRYDEYVNVKDFSDKINRALAAAKKDNDFIYHDRVPDLKDLDPIGKATLVKSTPVNVPISQKFTDLFEKMVPVSVQQSLAAYNQRKADLVNRSIAQMREATTLANGVLASLNLPAAIEDVSGDTVPQSILTKSRSVIEQGGIQTVDQLIKELPELLQRNREILDESLRLLDEEEATDNDLRAKFKERWQRTPSNELYKPLRAEGTNFRTVLDKAVQADGQAKECYQSHRDTIVLLCKPEPELNAAIPSANPAKTMQGSEVVNVLKSLLSNLDEVKKEREGLENDLKSVNFDMTSKFLTALAQDGVINEEALSVTELDRVYGGLTTKVQESLKKQEGLLKNIQVSHQEFSKMKQSNNEANLREEVLKNLATAYDNFVELVANLKEGTKFYNELTEILVRFQNKCSDIVFARKTERDELLKDLQQSIAREPSAPSIPTPAYQSSPAGGHAPTPPTPAPRTMPPTKPQPPARPPPPVLPANRAPSATAPSPVGAGTAAPAPSQTPGSAPPPQAQGPPYPTYPGYPGYCQMPMPMGYNPYAYGQYNMPYPPVYHQSPGQAPYPGPQQPSYPFPQPPQQSYYPQQ

Columns and labels:
[1] = biological target: p9 p9 (Equine infectious anemia virus) (UniProt P69730); experiment: SPR; conditions: cited from earlier work
[2] = biological target: T1, GAL4 DBD-p9 EIAVUK, P69732; experiment: yeast two-hybrid, β-galactosidase assay; conditions: chain shown with the change;; parent: est. 1.2; read off a plot
[3] = biological target: T2, Gal4 DBD-HIV-1 p6 (wild type), P12493; experiment: yeast two-hybrid, β-galactosidase assay; conditions: chain shown with the change;; parent: est. 0.85; read off a plot

Molecule | Kd [1] [µM] | other: relative β-Gal activity (relative to ALIX wild type = 1) [2] | other: relative β-Gal activity (relative to ALIX wild type = 1) [3]
ALIX deleted from PRR (from UniProt Q8WUM4) | 1.2 |  | 
B1 |  | 1.1 | 0.05
